Results published in patent publication US20260209291A1 (KAMINO, published 2026).

T1: GDF11 (Growth Differentiation Factor 11) (Homo sapiens (Human), UniProt O95390 299-407)
T1 sequence: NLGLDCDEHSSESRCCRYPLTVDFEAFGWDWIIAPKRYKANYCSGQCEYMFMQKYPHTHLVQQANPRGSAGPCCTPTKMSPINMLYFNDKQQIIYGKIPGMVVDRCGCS

T2: activin A (human, UniProt P08476 311-426)
T2 sequence: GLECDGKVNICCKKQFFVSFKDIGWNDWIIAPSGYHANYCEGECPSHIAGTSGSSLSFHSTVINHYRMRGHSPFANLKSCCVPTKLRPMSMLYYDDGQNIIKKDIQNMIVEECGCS

T3: myostatin (Homo sapiens (Human), UniProt O14793 267-375)
T3 sequence: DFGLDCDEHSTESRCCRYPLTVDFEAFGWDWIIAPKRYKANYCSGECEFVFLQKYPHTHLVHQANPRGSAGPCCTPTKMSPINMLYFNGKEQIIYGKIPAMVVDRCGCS


Legend:
[1] = target: T4, vimentin (endogenous, in HEK293 cells) (human (HEK293 cells), UniProt P08670 2-466); test: confocal imaging of adherent HEK293 cells after 18 hours with 1 µM ATTO 488 labelled compound; the filing reads the filaments as vimentin; no vimentin co-stain on the sheet
T4 construct: whole, on cells; Intracellular filament protein, inside the cells and not on their surface
T4 sequence (P08670 2-466): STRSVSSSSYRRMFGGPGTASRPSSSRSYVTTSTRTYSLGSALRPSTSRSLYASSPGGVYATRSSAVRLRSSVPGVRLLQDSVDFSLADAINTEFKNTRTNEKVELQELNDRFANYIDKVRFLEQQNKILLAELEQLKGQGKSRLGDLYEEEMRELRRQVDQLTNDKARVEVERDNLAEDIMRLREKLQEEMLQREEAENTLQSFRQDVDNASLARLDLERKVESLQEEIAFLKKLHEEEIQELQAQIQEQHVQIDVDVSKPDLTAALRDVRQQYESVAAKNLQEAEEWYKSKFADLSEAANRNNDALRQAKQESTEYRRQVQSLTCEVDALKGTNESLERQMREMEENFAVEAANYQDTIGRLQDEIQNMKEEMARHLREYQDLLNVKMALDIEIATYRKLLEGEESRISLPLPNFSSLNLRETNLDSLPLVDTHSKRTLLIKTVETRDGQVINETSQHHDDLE
Description: (§1) After labeling, compound concentration was determined using the Pierce Coomassie (Bradford) Protein Assay Kit (Thermo Scientific, #23200).
Briefly, HEK293 cells were seeded on a cover slip glass (Thorlabs, #CG15NH) treated with poly-D-lysine (ThermoFisher, #A3890401) to promote adhesion. Cells were seeded in DMEM (ThermoFisher, #11995073) supplemented with 10% fetal bovine serum (FBS). After 24 hours, cells were washed with PBS and compounds (1 μM) were added in 100% DMEM without FBS. A control sample using 100% DMEM without added compound was also included. After 3 hours and 18 hours of incubation, cells were washed 3 times with PBS. […] Cells were then washed 3 times with PBS and fixed using 4% formalin for 30 minutes. Cover slips were mounted using ProLong Glass Antifade Mountant (ThermoFisher, #P36980). Confocal imaging was conducted using a Zeiss LSM800 laser scanning confocal microscope (Carl Zeiss Microscopy GmbH, Oberkochen, Germany) equipped with 2 GaAsP and one Airyscan detector and Zen Blue Edition software (Carl Zeiss Microscopy GmbH, version 2.5). Confocal images were taken with the PlanApo x63 Oil NA 1.4 objective. […] Lysotracker Red DND-99 was excited using a 561 nm diode laser at 2.60% (both 3-hour and 18-hour samples) and detected at wavelengths 575-700 nm. For each sample, a Z-stack was recorded with an interval of 0.270 μm (3-hour samples) or 0.170 μm (18-hour samples). […]

[2] = target: T5, vimentin (endogenous, in mouse gastrocnemius muscle connective tissue cells) (mouse, UniProt P20152 2-466); test: confocal imaging of sections of mouse gastrocnemius muscle 18 hours after intramuscular injection of 8 µg ATTO 488 labelled compound; the filing reads the filaments as vimentin; no vimentin co-stain on the sheet
T5 construct: whole, on cells; Intracellular filament protein, inside the cells and not on their surface
T5 sequence (P20152 2-466): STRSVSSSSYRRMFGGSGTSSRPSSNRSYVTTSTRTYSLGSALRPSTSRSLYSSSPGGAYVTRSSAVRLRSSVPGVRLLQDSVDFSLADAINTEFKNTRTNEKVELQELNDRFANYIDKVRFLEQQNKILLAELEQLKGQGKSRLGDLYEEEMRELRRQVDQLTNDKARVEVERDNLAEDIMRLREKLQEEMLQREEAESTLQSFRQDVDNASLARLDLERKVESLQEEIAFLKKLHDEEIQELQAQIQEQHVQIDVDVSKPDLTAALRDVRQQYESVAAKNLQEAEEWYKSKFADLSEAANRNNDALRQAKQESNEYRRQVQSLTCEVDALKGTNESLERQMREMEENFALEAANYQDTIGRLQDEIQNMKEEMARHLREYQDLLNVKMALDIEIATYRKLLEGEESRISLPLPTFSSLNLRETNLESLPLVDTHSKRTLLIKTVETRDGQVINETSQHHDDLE
Description: as §1
Two 12-week-old female BALB/c mice were allocated for injection with either anti-vimentin-nanobody-FSD1 (type 1 compound, n=1) or anti-vimentin-nanobody (n=1). During anaesthesia, the right hind limb was shaved to expose the calf muscles. A single dose of 8 μg, fluorescently labeled compound was administered intramuscularly in a volume of 5 μl in the gastrocnemius muscle. Mice received a subcutaneous injection of pain relief (Carprofen 5 mg/kg) to counter any pain resulting from tension in the muscle. Eighteen hours after injection, the gastrocnemius muscle was dissected and immersion-fixed in 4% formaldehyde. The gastrocnemius muscle was ethanol dehydrated, embedded in paraffin, and sectioned at 4 μm thickness using a microtome. Sections were left unstained and mounted with DAPI containing mountant (#P36962, ProLong Diamond Antifade Mountant with DAPI) on microscope slides. […] DAPI was excited using a 405 nm diode laser at 1.00% and detected at wavelengths […]. For each sample, a Z-stack was recorded with an interval of 0.190 μm. […]

[3] = target: VEGF (Vascular Endothelial Growth Factor) (UniProt P15692-4 27-191); test: SPR (Biacore 3000, 25 °C): compound captured to about 1,000 RU on a CM5 chip with the mouse antibody capture kit, VEGF injected for 120 s, 300 s dissociation; negative control
VEGF (Vascular Endothelial Growth Factor), sequence (P15692 other isoform, or with tags, fused parts or gaps limits assumed): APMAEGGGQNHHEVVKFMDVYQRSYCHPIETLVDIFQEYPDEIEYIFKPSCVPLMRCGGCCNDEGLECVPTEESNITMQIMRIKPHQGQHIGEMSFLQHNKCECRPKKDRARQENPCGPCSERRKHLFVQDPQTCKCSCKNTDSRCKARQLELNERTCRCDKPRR
Description: (§2) Surface plasmon resonance (SPR) experiments were carried out on a Biacore 3000 (Cytiva). A CM5 chip for capture of the compounds was prepared according to the instructions of the mouse antibody capture kit (Cytiva, #BR100838). VGFR(½)-mFc-FSD1, TNFR2-mFc-FSD1, VGFR(½)/FST291-mFc, TNFR2/FST291-mFc, VGFR(½)-hFc (Aflibercept), TNFR2-hFc (Etanercept), and FST315dHBS-mFc (SEQ ID NO: 30, SEQ ID NO: 31) were captured to approximately 1,000 RU (Resonance Units). TNFα (R&D Systems, #210-TA-005,) or VEGF (R&D Systems, #293-VE-010) were then injected for 120 s followed by a 300 s dissociation phase. At the end of each binding cycle, non-covalently attached molecules were removed from both surfaces by a 180 s regeneration with 10 mM glycine, pH 1.7. All proteins were diluted in running buffer ([…], pH 7.5, […], 2 mM CaCl₂) and 0.05% Tween 20). A flow rate of 30 μl/min was used in all steps of the experiments. Binding analysis was performed at 25° C., and data were collected at a rate of 1 Hz. Using the BIAevaluation 4.1.1 software (Cytiva), recorded signals were referenced; the signal from the in-line reference flow cell was subtracted as was the signal from a blank run (0 nM analyte).

[4] = target: T1, GDF11 (Growth Differentiation Factor 11); test: cell-based or functional assay
activin A = target: T2, activin A; test: cell-based or functional assay
[5] = target: TNFα (Tumor Necrosis Factor alpha) (UniProt P01375 77-233); test: SPR (Biacore 3000, 25 °C): compound captured to about 1,000 RU on a CM5 chip with the mouse antibody capture kit, TNFα injected for 120 s, 300 s dissociation; negative control
TNFα (Tumor Necrosis Factor alpha), sequence (P01375 77-233 limits assumed): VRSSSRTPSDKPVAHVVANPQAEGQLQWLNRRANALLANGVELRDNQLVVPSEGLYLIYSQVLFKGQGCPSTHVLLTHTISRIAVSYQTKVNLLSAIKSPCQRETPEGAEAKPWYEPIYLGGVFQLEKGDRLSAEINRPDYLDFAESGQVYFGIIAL
Description: as §2

myostatin = target: T3, myostatin; test: cell-based or functional assay

| binding result [1] | binding result [2] | binding result [3] | IC50, neutralisation of 1 ng/mL GDF11 (pSmad2/3 luciferase reporter, HEK293 cells) [4] [pM] | IC50, neutralisation of 1 ng/mL activin A (pSmad2/3 luciferase reporter, HEK293 cells) (activin A) [pM] | IC50, neutralisation of 1 ng/mL myostatin (pSmad2/3 luciferase reporter, HEK293 cells) (myostatin) [pM] | Binder | binding result [5] |
| --- | --- | --- | --- | --- | --- | --- | --- |
| binds | binds | – | – | – | – | anti-vimentin-nanobody-FSD1 (VHH, ATTO 488 fluorescent label, sites not stated, also called anti-vimentin-nb-FSD1; type 1 design compound) VHH: QVQLVESGGGLVQSGGSLTLTCAASGFTFSAASMRWVRQVPGKGLEWVATIDGTGANSYYSESAKGRFTISRDNARNTLYLQMNNLKPDDTAVYYCANFGRNYWGKGTQVTVSS | – |
| – | – | no binding (tested: 25 nM VEGF) | 205 | 47 | 225 | FST315dHBS-mFc (Fc fusion) GNCWLRQAKNGRCQVLYKTELSKEECCSTGRLSTSWTEEDVNDNTLFKWMIFNGGAPNCIPCKETCENVDCGPGSTCVVDQTNNPRCVCAPDCSNITWKGPVCGLDGKTYRNECALLKARCKEQPELEVQYQGRCKKTCRDVFCPGSSTCVVDQTNNAYCVTCNRICPEPASSEQYLCGNDGVTYSSACHLRKATCLLGRSIGLAYEGKCIKAKSCEDIQCTGGKKCLWDFKVGRGRCSLCDELCPDSKSDEPVCASDNATYASECAMKEAACSSGVLLEVKHSGSCNSISEDTEEEEEDEDQDYSFPISSILEWPRGPTIKPCPPCKCPAPNLLGGPSVFIFPPKIKDVLMISLSPIVTCVVVDVSEDDPDVQISWFVNNVEVHTAQTQTHREDYNSTLRVVSALPIQHQDWMSGKEFKCKVNNKDLPAPIERTISKPKGSVRAPQVYVLPPPEEEMTKKQVTLTCMVTDFMPEDIYVEWTNNGKTELNYKNTEPVLDSDGSYFMYSKLRVEKKNWVERNSYSCSVVHEGLHNHHTTKSFSRTPGK | no binding (tested: 50 nM TNFα) |
